Data set [1] deals with T1, ABCG2 (Homo sapiens, UniProt Q9UNQ0).
T1 construct: expressed in transfected cells
T1 sequence (Q9UNQ0 1-655): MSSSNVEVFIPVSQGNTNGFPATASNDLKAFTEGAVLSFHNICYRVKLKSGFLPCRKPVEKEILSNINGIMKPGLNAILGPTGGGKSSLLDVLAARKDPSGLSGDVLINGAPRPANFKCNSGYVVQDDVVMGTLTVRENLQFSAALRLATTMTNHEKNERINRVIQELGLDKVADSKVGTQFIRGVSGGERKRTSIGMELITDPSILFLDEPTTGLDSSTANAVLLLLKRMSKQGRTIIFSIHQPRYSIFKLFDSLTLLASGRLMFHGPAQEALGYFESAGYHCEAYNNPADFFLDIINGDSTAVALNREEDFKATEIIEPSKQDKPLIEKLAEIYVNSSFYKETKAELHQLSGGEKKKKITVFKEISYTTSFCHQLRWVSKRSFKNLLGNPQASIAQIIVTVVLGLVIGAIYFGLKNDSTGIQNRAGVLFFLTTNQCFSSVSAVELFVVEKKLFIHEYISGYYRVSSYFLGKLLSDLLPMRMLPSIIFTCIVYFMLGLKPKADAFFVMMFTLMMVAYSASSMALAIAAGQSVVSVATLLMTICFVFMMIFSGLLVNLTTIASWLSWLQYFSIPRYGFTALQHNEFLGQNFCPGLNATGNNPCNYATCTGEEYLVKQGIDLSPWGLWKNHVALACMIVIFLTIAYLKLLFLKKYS
Briefly: Flow cytometry binding to 293T cells overexpressing human ABCG2 (293T_ABCG2_OX). The arrangement: key to Binding by FACS: binding=“+”; non-significant binding=“−”. The protocol:
(§1) Cell Binding Assays. Antibody binding to cells was evaluated by flow cytometry. 293T cells stably transfected to express human or cynomolgus ABCG2 (293T_ABCG2_OX) were washed once in flow cytometry buffer (PBS+2% FBS+0.02% sodium azide), resuspended at 2×10^6 cells/mL in flow cytometry buffer, and dispensed into 96-well microtiter plates at 0.1 mL/well. Recombinant antibodies were added to cells at 5 ug/mL for initial binding confirmation, or serially diluted from 100 ug/mL in flow cytometry buffer. After incubating cells on ice for 30 min, cells were washed twice with flow cytometry buffer. Bound antibody was detected with PE-labeled F(ab′)2 fragment goat anti-human IgG (Jackson ImmunoResearch) and evaluated on an Attune NxT flow cytometer. EC50 is calculated to be the concentration of antibody that gives half maximal response.
A general note: A flow cytometer gives signals particle by particle.

Another data set deals with cynomolgus ABCG2. Put plainly: Flow cytometry binding to 293T cells overexpressing cynomolgus ABCG2. The arrangement: key to Cynomolgus ABCG2 binding: binding=“+”; non-significant binding=“−”. On the procedure:
as §1

A further data set deals with 293T_ABCG2_OX cells. The format is cell-based, human. The note with it: cell killing by topotecan on 293T_ABCG2_OX cells; viability relative to IgG control. The protocol:
Cytotoxicity Assays. The effect of antibodies on topotecan cytotoxicity was evaluated on 293T_ABCG2_OX cells, 293T cells stably transfected to express ABCG2. Cells were plated in 0.05 mL of Assay Media (DMEM+10% FBS) at 5000 cells/well in white, flat bottom 96-well tissue culture plates. Topotecan was prepared at 2× final assay concentration by serial dilution from 200 uM in assay media containing test antibodies or control antibodies at 100 ug/mL (2× final concentration), or Fumitremorgin C, a small molecule ABCG2 inhibitor at 20 uM (2× final concentration). An equivalent volume (0.05 mL) of the topotecan/antibody mixture was added to the 293T_ABCG2_OX cells in 96-well plates. The plates were then incubated at 37° C., in 5% CO2. After 72-96 hr plates were equilibrated to room temperature and cell viability assessed using Promega® CellTiter-Glo® Luminescent Cell Viability Assay according to the manufacturer's recommended protocol. Luminescence was measured on a Molecular Devices® FlexStation® 3 Multi-Mode Microplate Reader and data analyzed using GraphPad Prism 8.0 software. Half maximal inhibitory concentration (1050) is the concentration of drug (topotecan or other chemotherapy cytotoxic agent) where the response (cell growth) is reduced by 50%.

The target in data set [2] is T1, ABCG2. The format is cell-based. On the procedure: 293T_ABCG2_OX cells were washed several times and aliquoted into 96-well plates as 50 μl aliquots/well at a cell density of 2×10e6 cells per ml in phenol red-free DMEM. Cells were mixed with 50 μl antibodies or the small molecule inhibitors of ABCG2:-fumitremorgin C (FTC), or its tetracyclic analogue K0143, with a final concentration of 1 μM. Cells were then incubated in the presence of 2.5 μM Mitoxantrone 1 h at 37° C. The cells were subsequently washed twice and finally resuspended in […] PBS. Mitoxantrone fluorescence was measured using excitation at 635 nm and emission at 647 nm. Protocols was measuring efflux blockade are found in Szabo E, et al., PLoS One. 2018 Jan. 17; 13(1):e0190629; Deeken J F, et al., Mol Pharmacol. 2009 November; 76(5):946-56).

Chain of cynomolgus ABCG2 (as listed by the source): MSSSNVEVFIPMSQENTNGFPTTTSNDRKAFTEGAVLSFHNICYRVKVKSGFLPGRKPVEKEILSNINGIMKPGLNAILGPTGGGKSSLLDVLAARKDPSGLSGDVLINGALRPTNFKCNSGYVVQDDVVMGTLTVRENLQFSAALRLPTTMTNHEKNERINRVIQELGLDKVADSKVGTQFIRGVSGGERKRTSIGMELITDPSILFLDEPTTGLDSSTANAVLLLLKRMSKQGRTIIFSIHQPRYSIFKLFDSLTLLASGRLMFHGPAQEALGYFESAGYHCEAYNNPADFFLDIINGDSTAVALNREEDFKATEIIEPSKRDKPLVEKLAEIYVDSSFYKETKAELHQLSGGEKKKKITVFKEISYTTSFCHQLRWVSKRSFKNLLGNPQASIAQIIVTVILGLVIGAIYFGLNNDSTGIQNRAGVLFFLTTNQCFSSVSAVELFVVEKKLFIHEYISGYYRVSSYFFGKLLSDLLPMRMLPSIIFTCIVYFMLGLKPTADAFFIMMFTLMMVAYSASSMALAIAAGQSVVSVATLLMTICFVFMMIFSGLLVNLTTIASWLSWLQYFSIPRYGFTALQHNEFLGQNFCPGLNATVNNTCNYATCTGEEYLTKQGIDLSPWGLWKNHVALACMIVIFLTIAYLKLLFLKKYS

In the case of “5D3: anti-Human ABCG2 Antibody (Clone 5D3) from R&D Systems [Antibody 5D3, reference compound]”, in the data set with ABCG2 [1] (293T_ABCG2_OX cells), the “Binding by FACS” value is given as “+”. Moreover, in the data set with ABCG2 [1] (FIG. 1B, stably transfected cells), the “binding to human ABCG2 expressed on 3T3 and C6 cell lines” value was “binds”. In addition, the “Cynomolgus ABCG2 binding” value in the data set on cynomolgus ABCG2 is “+”. Moreover, the “binding to cynomolgus ABCG2 (cG2) expressed by 3T3 cells” value in the data set with cynomolgus ABCG2 (FIG. 1B, 3T3 cells stably transfected with cABCG2) is given as “binds”. Further, the Killing entry in the data set on 293T_ABCG2_OX cells was “++ (viability ≥10% and <30% of IgG control)”. In addition, in the data set with ABCG2 [2], the “Block Efflux” value was “+”.

Source of the values: patent publication US20230212305A1, “ANTI-ABCG2 ANTIBODIES AND USES THEREOF” (Kenjockety Biotechnology, Inc., priority 2020, published 2023).
